Source: EP4491631A1 (Anaveon AG, dated 2025)

T1: IL-2R CD122-CD132 on Jurkat-PD1+ CD122+ cells (UniProt P14784 27-551; P31785 23-369)
T1 sequence (looked up) 1: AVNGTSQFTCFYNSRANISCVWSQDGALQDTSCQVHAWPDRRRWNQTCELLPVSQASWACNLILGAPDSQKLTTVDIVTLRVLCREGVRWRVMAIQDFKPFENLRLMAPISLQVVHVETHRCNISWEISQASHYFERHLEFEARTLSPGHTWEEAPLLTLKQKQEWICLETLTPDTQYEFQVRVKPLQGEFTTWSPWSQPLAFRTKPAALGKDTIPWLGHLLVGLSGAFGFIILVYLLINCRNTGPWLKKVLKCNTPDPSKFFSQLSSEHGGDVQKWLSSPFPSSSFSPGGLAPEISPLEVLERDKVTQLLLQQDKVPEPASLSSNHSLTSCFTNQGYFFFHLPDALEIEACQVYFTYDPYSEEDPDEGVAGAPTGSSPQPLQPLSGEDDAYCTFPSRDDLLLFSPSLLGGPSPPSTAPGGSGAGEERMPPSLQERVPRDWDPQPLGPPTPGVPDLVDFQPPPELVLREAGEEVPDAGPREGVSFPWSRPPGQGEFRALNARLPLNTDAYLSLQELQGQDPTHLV
T1 sequence (looked up) 2: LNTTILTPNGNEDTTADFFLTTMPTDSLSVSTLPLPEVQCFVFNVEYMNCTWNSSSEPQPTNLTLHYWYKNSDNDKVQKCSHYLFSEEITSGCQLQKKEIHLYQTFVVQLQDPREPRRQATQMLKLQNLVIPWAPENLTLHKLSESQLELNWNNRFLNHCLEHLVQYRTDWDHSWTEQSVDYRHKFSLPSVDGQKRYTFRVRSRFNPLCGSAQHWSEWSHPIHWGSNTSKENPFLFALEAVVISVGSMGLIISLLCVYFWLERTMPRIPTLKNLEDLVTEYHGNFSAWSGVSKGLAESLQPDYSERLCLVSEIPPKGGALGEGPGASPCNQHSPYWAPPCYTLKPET


Experiments:
[1] = target: T1, IL-2R CD122-CD132 on Jurkat-PD1+ CD122+ …; assay: cell-based or functional assay
[2] = target: T2, cynoPD-1 His (AcroBiosystems PD1-C5223) (cynomolgus monkey, UniProt B0LAJ3 25-170); assay: SPR, antibody captured
T2 construct: also called cPD-1
T2 sequence (B0LAJ3 entry or part of it limits assumed, form in doubt): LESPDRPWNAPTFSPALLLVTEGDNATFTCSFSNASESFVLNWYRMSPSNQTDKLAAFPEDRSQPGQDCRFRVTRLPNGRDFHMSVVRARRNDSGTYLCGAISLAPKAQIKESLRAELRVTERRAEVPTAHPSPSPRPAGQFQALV

Row | Binder | EC50 value for pSTAT5 induction [1] | koff [2]
1 | LTJ498 (bispecific antibody, human IgG1, lambda, L234A L235A) chain 1: EVQLLESGGGLVQPGGSLRLSCAASGFTFSINAMTWVRQAPGKGLEWVSTISGSGFSTYYADSLKGRFTISRDNSKNTLYLQMNSLRAEDTAVYYCAKEVYGDYWGQGTLVTVSSASTKGPSVFPLAPSSKSTSGGTAALGCLVKDYFPEPVTVSWNSGALTSGVHTFPAVLQSSGLYSLSSVVTVPSSSLGTQTYICNVNHKPSNTKVDKRVEPKSCDKTHTCPPCPAPEAAGGPSVFLFPPKPKDTLMISRTPEVTCVVVDVSHEDPEVKFNWYVDGVEVHNAKTKPREEQYNSTYRVVSVLTVLHQDWLNGKEYKCKVSNKALAAPIEKTISKAKGQPREPQVYTLPPSREEMTKNQVSLTCLVKGFYPSDIAVEWESNGQPENNYKTTPPVLDSDGSFFLTSKLTVDKSRWQQGNVFSCSVMHEALHNHYTQKSLSLSPGK chain 2: not shown chain 3: AIRLTQSPSSFSASTGDRVTITCKASQSVDYGGGNFHLRPRDLISNINVIVLELKGSETTFMCEYADETATIVEFLNRWITFSQSIISTLTPTSSSTKKTQLQLEHLLLDLQMILNGINNYKNPKLTRMLTFKFYMPKKATELKHLQCLEEELKPLEEVLNLAQSKGGGGDSYMNWYQQKPGKAPKLLIYAASNLESGVPSRFSGSGSGTDFTLTISSLQSEDFATYYCQQSNEDPYTFGGGTKVEIKGGGGSGGGGSGGGGSEVQLVQSGAEVKKPGESLKISCKGSGYAFTNYLIEWVRQMPGKGLEWMGVINPGSGGTNYNEKFKGQVTISADKSISTAYLQWSSLKASDTAMYYCARWRGEGYYAYFDVWGQGTTVTVSSGGGGSGGGGSEVQLLESGGGLVQPGGSLRLSCAASGFTFSINAMTWVRQAPGKGLEWVSTISGSGFSTYYADSLKGRFTISRDNSKNTLYLQMNSLRAEDTAVYYCAKEVYGDYWGQGTLVTVSSASTKGPSVFPLAPSSKSTSGGTAALGCLVKDYFPEPVTVSWNSGALTSGVHTFPAVLQSSGLYSLSSVVTVPSSSLGTQTYICNVNHKPSNTKVDKRVEPKSCDKTHTCPPCPAPEAAGGPSVFLFPPKPKDTLMISRTPEVTCVVVDVSHEDPEVKFNWYVDGVEVHNAKTKPREEQYNSTYRVVSVLTVLHQDWLNGKEYKCKVSNKALAAPIEKTISKAKGQPREPQVYTLPPSREEMTKNQVSLYCLVKGFYPSDIAVEWESNGQPENNYKTTPPVLDSDGSFFLYSKLTVDKSRWQQGNVFSCSVMHEALHNHYTQKSLSLSPGK | 0.24 nM | –
2 | XWY176 (bispecific antibody, human IgG1, kappa, lambda, L234A L235A) chain 1: EVQLLESGGGLVQPGGSLRLSCAASGFTFSINAMTWVRQAPGKGLEWVSTISGSGFSTYYADSLKGRFTISRDNSKNTLYLQMNSLRAEDTAVYYCAKEVYGDYWGQGTLVTVSSASTKGPSVFPLAPSSKSTSGGTAALGCLVKDYFPEPVTVSWNSGALTSGVHTFPAVLQSSGLYSLSSVVTVPSSSLGTQTYICNVNHKPSNTKVDKRVEPKSCDKTHTCPPCPAPEAAGGPSVFLFPPKPKDTLMISRTPEVTCVVVDVSHEDPEVKFNWYVDGVEVHNAKTKPREEQYNSTYRVVSVLTVLHQDWLNGKEYKCKVSNKALAAPIEKTISKAKGQPREPQVYTLPPSREEMTKNQVSLTCLVKGFYPSDIAVEWESNGQPENNYKTTPPVLDSDGSFFLTSKLTVDKSRWQQGNVFSCSVMHEALHNHYTQKSLSLSPGK chain 2: not shown chain 3: EVQLVQSGAEVKKPGESLKISCKGSGYAFTNYLIEWVRQMPGKGLEWMGVINPGSGGTNYNEKFKGQVTISADKSISTAYLQWSSLKASDTAMYYCARWRGEGYYAYFDVWGQGTTVTVSSASTKGPSVFPLAPSSKSTSGGTAALGCLVKDYFPEPVTVSWNSGALTSGVHTFPAVLQSSGLYSLSSVVTVPSSSLGTQTYICNVNHKPSNTKVDKRVEPKSCDKTHTCPPCPAPEAAGGPSVFLFPPKPKDTLMISRTPEVTCVVVDVSHEDPEVKFNWYVDGVEVHNAKTKPREEQYNSTYRVVSVLTVLHQDWLNGKEYKCKVSNKALAAPIEKTISKAKGQPREPQVYTLPPSREEMTKNQVSLYCLVKGFYPSDIAVEWESNGQPENNYKTTPPVLDSDGSFFLYSKLTVDKSRWQQGNVFSCSVMHEALHNHYTQKSLSLSPGK chain 4: not shown | 0.27 nM | –
3 | z5-XVT458 (antibody, human IgG1, kappa, V domains shown, full hIgG1 format) VH: QVQLVQSGAEVKKPGASVKVSCKASGYTFTNFYIHWVRQAPGQGLEWMGSIYPNYGDTAYNQKFKDRATMTTDKSTSTAYMELRSLRSDDTAVYYCARGYSYAMDYWGQGTTVTVSS VL: DIQMTQSPSSVSASVGDRVTITCSASQGISGDLNWYQQKPGKAPKLLIYHTSSLHSGVPSRFSGSGSGTDFTLTISSLQPEDFATYYCQYYSKDLLTFGGGTKLEIKR | – | 0.00338 s⁻¹
